Laboratory results as given in patent US20230056252A1 (Gilead, published 2023).
Read-outs that look alike come from different tables or passages of the source.

Experiments:
[1] = target: T1, biotinylated CD3 epsilon:delta heterodimer protein (Amsbio AMS.CDD-H52WO) (Homo sapiens (Human), UniProt P07766 23-126; P04234 22-105); assay: BLI (Octet), CD3 on SA sensor, bispecific analyte
T1 construct: also called CD3 heterodimer

[2] = target: T2, biotinylated Human CD3E and CD3D (Acro Biosystems Cat CDD-H82W1) (human, UniProt P07766 23-126; P04234 22-105); assay: SPR (Biacore 4000), CD3 captured on streptavidin chip;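 also: bispecific antibodies or Fabs injected at several concentrations over CD3 surfaces of varying density, sensorgrams fitted with a simple kinetic model to obtain association, dissociation and equilibrium constants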
T2 construct: also called biotinylated CD3

[3] = target: T1, biotinylated CD3 epsilon:delta …; assay: BLI (Octet), CD3 on SA sensor, bispecific analyte; remark: listed apart in the source

| Binder | Kd [1] [nM] | koff [1] [s⁻¹] | kon [1] [M⁻¹ s⁻¹] | Kd [2] [nM] | koff [2] [s⁻¹] | kon [2] [M⁻¹ s⁻¹] | Kd [3] [nM] | koff [3] [s⁻¹] | kon [3] [M⁻¹ s⁻¹] |
| --- | --- | --- | --- | --- | --- | --- | --- | --- | --- |
| hPGT121.66 AAS + W/huSP34.14.8scFv AAS + SAV + R (bispecific antibody, human IgG1, lambda, L234A L235A) EVQLVESGGGLVQPGGSLSLSCAASGFTFSTYAMNWVRQAPGKGLEWVGRIRSKYNNYATYYAASVKGRFTISRDDSKNTLYLQMNSLRTEDTAVYYCVRHGNFGHSYVSWFAYWGQGTLVTVSSGGGGSGGGGSGGGGSGGGGSQAVVTQEPSLTVSPGGTVTLTCGSSTGAVTTGHYANWVQQKPGQAPRGLIGGTNKRAPGVPARFSGSLLGGKAALTISGAQPEDEAEYYCALWYSNRWVFGGGTKLTVLEPKSSDKTHTCPPCPAPEAAGGPSVFLFPPKPKDTLMISRTPEVTCVVVDVSHEDPEVKFNWYVDGVEVHNAKTKPREEQYNSTYRVVSVLTVLHQDWLNGKEYKCKVSNKALPASIEKTISKAKGQPREPQVYTLPPSREEMTKNQVSLSCAVKGFYPSDIAVEWESNGQPENNYKTTPPVLDSDGSFFLVSKLTVDKSRWQQGNVFSCSVMHEALHNRYTQKSLSLSPGK heavy: QMQLQESGPGLVKPSETLSLTCSVSGASISDSYWSWIRRSPGKGLEWIGYVHKSGDTNYNPSLKSRVHLSLDTSKNQVSLSLTGVTAADSGKYYCARTLHGRRIYGIVAFNEWFTYFYMDVWGTGTQVTVSSASTKGPSVFPLAPSSKSTSGGTAALGCLVKDYFPEPVTVSWNSGALTSGVHTFPAVLQSSGLYSLSSVVTVPSSSLGTQTYICNVNHKPSNTKVDKKVEPKSCDKTHTCPPCPAPEAAGGPSVFLFPPKPKDTLMISRTPEVTCVVVDVSHEDPEVKFNWYVDGVEVHNAKTKPREEQYNSTYRVVSVLTVLHQDWLNGKEYKCKVSNKALPASIEKTISKAKGQPREPQVYTLPPSREEMTKNQVSLWCLVKGFYPSDIAVEWESNGQPENNYKTTPPVLDSDGSFFLYSKLTVDKSRWQQGNVFSCSVMHEALHNHYTQKSLSLSPGK light: not shown | 24.3 | 0.000932 | 39000 | – | – | – | – | – | – |
| hPGT121.66 AAS + W/huSP34.34.10 scFv AAS + SAV + R (bispecific antibody, human IgG1, lambda, L234A L235A) EVQLVESGGGLVQPGGSLRLSCAASGFTFNTYAMNWVRQAPGKGLEWVGRIRSKYNNYATYYAASVKGRFTISRDDSKNSLYLQMNSLKTEDTAMYYCVRHGNFGHSYVSWFAYWGQGTLVTVSSGGGGSGGGGSGGGGSGGGGSQAVVTQPPSLTVSPGGTVTLTCGSSTGAVTTGHYANWVQQKPGQAPRGLIGGTNKRAPGVPARFSGSLSGGKAALTISGAQPEDEAEYYCALWYSNRWVFGGGTKLTVLEPKSSDKTHTCPPCPAPEAAGGPSVFLFPPKPKDTLMISRTPEVTCVVVDVSHEDPEVKFNWYVDGVEVHNAKTKPREEQYNSTYRVVSVLTVLHQDWLNGKEYKCKVSNKALPASIEKTISKAKGQPREPQVYTLPPSREEMTKNQVSLSCAVKGFYPSDIAVEWESNGQPENNYKTTPPVLDSDGSFFLVSKLTVDKSRWQQGNVFSCSVMHEALHNRYTQKSLSLSPGK heavy: QMQLQESGPGLVKPSETLSLTCSVSGASISDSYWSWIRRSPGKGLEWIGYVHKSGDTNYNPSLKSRVHLSLDTSKNQVSLSLTGVTAADSGKYYCARTLHGRRIYGIVAFNEWFTYFYMDVWGTGTQVTVSSASTKGPSVFPLAPSSKSTSGGTAALGCLVKDYFPEPVTVSWNSGALTSGVHTFPAVLQSSGLYSLSSVVTVPSSSLGTQTYICNVNHKPSNTKVDKKVEPKSCDKTHTCPPCPAPEAAGGPSVFLFPPKPKDTLMISRTPEVTCVVVDVSHEDPEVKFNWYVDGVEVHNAKTKPREEQYNSTYRVVSVLTVLHQDWLNGKEYKCKVSNKALPASIEKTISKAKGQPREPQVYTLPPSREEMTKNQVSLWCLVKGFYPSDIAVEWESNGQPENNYKTTPPVLDSDGSFFLYSKLTVDKSRWQQGNVFSCSVMHEALHNHYTQKSLSLSPGK light: not shown | – | – | – | 3.9 | 0.0102 | 2.6e+06 | 8.4 | 0.00083 | 120000 |
